Measured values as given in PMC7619206, “Human mitochondrial glutathione transferases: Kinetic parameters and accommodation of a mitochondria-targeting group in substrates” (Bioorganic & medicinal chemistry, 2024).

How the values were obtained:
hGSTA4-4 = biological target: T1, hGSTA4-4 (Homo sapiens, UniProt O15217); assay: UV/Vis initial rates of GS-conjugate formation, Michaelis-Menten fit; conditions: read-out: hGSTA4-4; 10 mM GSH, 0.1 M HEPES pH 8.0, 30 °C
T1 construct: gene GSTA4
T1 sequence (O15217 1-222): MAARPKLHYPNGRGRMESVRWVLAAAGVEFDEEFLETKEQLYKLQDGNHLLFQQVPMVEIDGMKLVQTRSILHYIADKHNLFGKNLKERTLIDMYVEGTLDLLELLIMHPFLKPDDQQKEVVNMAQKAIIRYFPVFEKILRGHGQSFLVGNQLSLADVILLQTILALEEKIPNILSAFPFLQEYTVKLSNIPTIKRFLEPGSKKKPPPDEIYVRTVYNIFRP

hGSTA1-1 = biological target: T2, hGSTA1-1 (Homo sapiens, UniProt P08263); assay: as above; conditions: read-out: KM (mM) / hGSTA1-1; 10 mM GSH, 0.1 M HEPES pH 8.0, 30 °C
T2 construct: gene GSTA1
T2 sequence (P08263 1-222): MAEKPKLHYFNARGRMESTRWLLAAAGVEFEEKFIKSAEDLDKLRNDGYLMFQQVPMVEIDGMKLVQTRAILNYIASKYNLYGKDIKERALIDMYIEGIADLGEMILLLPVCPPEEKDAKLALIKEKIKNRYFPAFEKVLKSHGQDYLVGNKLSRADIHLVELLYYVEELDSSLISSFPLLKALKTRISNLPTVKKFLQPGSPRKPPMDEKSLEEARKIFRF
Source text: UV/Vis initial rates of GS-conjugate formation, Michaelis-Menten fit on hGSTA1-1

hGSTK1-1 = biological target: T3, hGSTK1-1 (Homo sapiens, UniProt Q9Y2Q3); assay: as above; conditions: read-out: hGSTK1-1; 10 mM GSH, 0.1 M HEPES pH 8.0, 30 °C
T3 construct: gene GSTK1
T3 sequence (Q9Y2Q3 1-226): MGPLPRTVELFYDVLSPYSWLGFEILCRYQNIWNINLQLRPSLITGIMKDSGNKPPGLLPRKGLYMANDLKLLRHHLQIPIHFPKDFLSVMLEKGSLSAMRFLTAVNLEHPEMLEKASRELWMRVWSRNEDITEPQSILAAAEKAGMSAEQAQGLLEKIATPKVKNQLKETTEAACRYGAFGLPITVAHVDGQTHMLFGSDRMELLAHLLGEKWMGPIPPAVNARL
Source text: UV/Vis initial rates of GS-conjugate formation, Michaelis-Menten fit on hGSTK1-1

[1] = substrate: COC(=O)c1cc([N+](=O)[O-])ccc1Cl; assay: UV/Vis initial rates of GS-conjugate formation, Lineweaver-Burk fit; format: biochemical, Homo sapiens; conditions: 10 mM GSH, 0.1 M HEPES pH 8.0, 30 °C
Source text: (§1) UV/Vis initial rates of GS-conjugate formation, Lineweaver-Burk fit on hGSTK1-1

[2] = substrate: COC(=O)c1ccc(Cl)c([N+](=O)[O-])c1; assay: as above; format: biochemical, Homo sapiens; conditions: 10 mM GSH, 0.1 M HEPES pH 8.0, 30 °C
Source text: as §1

purified protein [3] = substrate: O=[N+]([O-])c1cc([N+](=O)[O-])c(NCCCC[P+](c2ccccc2)(c2ccccc2)c2ccccc2)cc1Cl; assay: purified protein; conditions: 10 mM GSH, 0.1 M HEPES pH 8.0, 30 °C
[4] = substrate: COC(=O)c1cc([N+](=O)[O-])ccc1Cl; assay: UV/Vis initial rates of GS-conjugate formation, Lineweaver-Burk fit; format: biochemical, Homo sapiens; conditions: 10 mM GSH, 0.1 M HEPES pH 8.0, 30 °C; remark: listed apart in the source
Source text: (§2) UV/Vis initial rates of GS-conjugate formation, Lineweaver-Burk fit on hGSTA1-1

[5] = substrate: COC(=O)c1ccc(Cl)c([N+](=O)[O-])c1; assay: as above; format: biochemical, Homo sapiens; conditions: 10 mM GSH, 0.1 M HEPES pH 8.0, 30 °C; remark: listed apart in the source
Source text: as §2

purified protein [6] = substrate: O=C(NCCCCC[P+](c1ccccc1)(c1ccccc1)c1ccccc1)c1cc([N+](=O)[O-])ccc1Cl; assay: purified protein; conditions: 10 mM GSH, 0.1 M HEPES pH 8.0, 30 °C
purified protein [7] = substrate: O=C(NCCCCC[P+](c1ccccc1)(c1ccccc1)c1ccccc1)c1ccc(Cl)c([N+](=O)[O-])c1; assay: purified protein; conditions: 10 mM GSH, 0.1 M HEPES pH 8.0, 30 °C
[8] = substrate: COC(=O)c1cc([N+](=O)[O-])ccc1Cl; assay: UV/Vis initial rates of GS-conjugate formation, Lineweaver-Burk fit; format: biochemical, Homo sapiens; conditions: 10 mM GSH, 0.1 M HEPES pH 8.0, 30 °C; remark: listed apart in the source
Source text: (§3) UV/Vis initial rates of GS-conjugate formation, Lineweaver-Burk fit on hGSTA4-4

[9] = substrate: COC(=O)c1ccc(Cl)c([N+](=O)[O-])c1; assay: as above; format: biochemical, Homo sapiens; conditions: 10 mM GSH, 0.1 M HEPES pH 8.0, 30 °C; remark: listed apart in the source
Source text: as §3

Molecule: O=[N+]([O-])c1ccc(Cl)c([N+](=O)[O-])c1 [compound 1, 1-chloro-2,4-dinitrobenzene]
- Km (hGSTA4-4): 253 ± 52 µM
- Km (hGSTA1-1): 0.128 ± 0.018 mM
- Km (hGSTK1-1): 1900 ± 320 µM

B1: hGSTK1-1 (Homo sapiens) (protein)
chain: T3 sequence (Q9Y2Q3 1-226)
notes: N-terminal 6xHis tag and TEV site (pNIC-28-BsaI), not cleaved; E. coli BL21(DE3), codon-optimised synthetic gene; Ni-NTA
- Km [1]: 1540 ± 30 µM
- kcat [1]: (9.45 ± 0.68) x 10^-2 s^-1
- Km [2]: 301 ± 8 µM
- kcat [2]: 0.106 ± 0.008 s⁻¹
- Km (purified protein [3]): 360 ± 67 µM
- kcat (purified protein [3]): 0.103 ± 0.008 s⁻¹

B2: hGSTA1-1 (Homo sapiens) (protein)
chain: T2 sequence (P08263 1-222)
notes: as for B1
- Km [4]: 1670 ± 50 µM
- kcat [4]: 2.31 ± 0.55 s⁻¹
- Km [5]: 2050 ± 770 µM
- kcat [5]: 8.85 ± 2.79 s⁻¹
- Km (purified protein [6]): 720 ± 17 µM
- kcat (purified protein [6]): (4.67 ± 0.19) x 10^-2 s^-1
- Km (purified protein [7]): 441 ± 10 µM
- kcat (purified protein [7]): 9.50 ± 0.45 s⁻¹
- Km (purified protein [3]): 146 ± 20 µM
- kcat (purified protein [3]): 14.7 ± 0.6 s⁻¹

B3: hGSTA4-4 (Homo sapiens) (protein)
chain: T1 sequence (O15217 1-222)
notes: as for B1
- Km [8]: 949 ± 27 µM
- kcat [8]: (5.61 ± 0.37) x 10^-2 s^-1
- Km [9]: 3580 ± 90 µM
- kcat [9]: 0.521 ± 0.203 s⁻¹
- Km (purified protein [7]): 826 ± 5 µM
- kcat (purified protein [7]): 2.13 ± 0.05 s⁻¹
- Km (purified protein [3]): 142 ± 9 µM
- kcat (purified protein [3]): 4.59 ± 0.08 s⁻¹
